Where a chain is given by its changes, count along the chain named.

This passage reports NT50 and ELISA area under curve (AUC) results from patent US20230107644A1.

Test [1] has as its target NA (N2) of influenza virus A/Victoria/361/2011 (influenza A virus A/Victoria/361/2011 (H3N2)). The test can be described thus: cell-based or functional assay.
Test [2] addresses NA (N2) of influenza virus A/Wisconsin/67/2005 (influenza A virus A/Wisconsin/67/2005 (H3N2)). The test can be described thus: cell-based or functional assay.
In test [3] the target is NA (N2) of influenza virus A/Uruguay/716/2007 (influenza A virus A/Uruguay/716/2007 (H3N2)). The test can be described thus: cell-based or functional assay.
Test [4] concerns the target NA (N2) of influenza virus A/Brisbane/10/2007 (influenza A virus A/Brisbane/10/2007 (H3N2)). The test can be described thus: cell-based or functional assay.
Test [5] addresses NA (N2) of influenza virus A/Perth/16/2009 (influenza A virus A/Perth/16/2009 (H3N2)). The test can be described thus: cell-based or functional assay.
Test [6] addresses NA (N2) of influenza virus A/Texas/50/2012 (influenza A virus A/Texas/50/2012 (H3N2)). The test can be described thus: cell-based or functional assay.
For test [7], the target named is N2 A/shorebird/Delaware/127/1997 (Influenza A virus (A/shorebird/Delaware/127/1997)).
Test [8] has as its target NA (N2) of influenza virus A/Wisconsin/67/2005 (influenza A virus A/Wisconsin/67/2005 (H3N2)).
Test [9] deals with NA (N2) of influenza virus A/Brisbane/10/2007 (influenza A virus A/Brisbane/10/2007 (H3N2)).
Test [10] addresses HA (H3) of influenza virus A/Brisbane/10/2007 (influenza A virus A/Brisbane/10/2007 (H3N2)).
Test [11] addresses H3 A/duck/Shantou/1283/2001 (Influenza A virus (A/duck/Shantou/1283/2001)).
In test [12] the target is HA (H3) of influenza virus A/Perth/16/2009 (influenza A virus A/Perth/16/2009 (H3N2)).
In test [13] the target is HA (H3) of influenza virus A/Wisconsin/67/2005 (influenza A virus A/Wisconsin/67/2005 (H3N2)).
Test [14] deals with HA (H3) of influenza virus A/Brisbane/10/2007 (influenza A virus A/Brisbane/10/2007 (H3N2)). Kind of test: cell-based or functional assay.
The target of test [15] is HA (H3) of influenza virus A/Victoria/361/2011 (influenza A virus A/Victoria/361/2011 (H3N2)). The test can be described thus: cell-based or functional assay.
The target in test [16] is HA (H3) of influenza virus A/Switzerland/9715283/2013 (influenza A virus A/Switzerland/9715283/2013 (H3N2)). The test can be described thus: cell-based or functional assay.
Test [17] deals with HA (H3) of influenza virus A/Victoria/210/2009 (influenza A virus A/Victoria/210/2009 (H3N2)). The test can be described thus: cell-based or functional assay.
Test [18] deals with HA (H3) of influenza virus A/Uruguay/716/2007 (influenza A virus A/Uruguay/716/2007 (H3N2)). Kind of test: cell-based or functional assay.
In test [19] the target is HA (H3) of influenza virus A/Texas/50/2012 (influenza A virus A/Texas/50/2012 (H3N2)). The test can be described thus: cell-based or functional assay.
Test [20] deals with HA (H3) of influenza virus A/Perth/16/2009 (influenza A virus A/Perth/16/2009 (H3N2)). Kind of test: cell-based or functional assay.
Test [21] has as its target HA (H3) of influenza virus A/Wisconsin/67/2005 (influenza A virus A/Wisconsin/67/2005 (H3N2)). Kind of test: cell-based or functional assay.

B1: 1122A11 hmAb (antibody, V domains shown)
VH: QVQLVQSGAEVSKPGASVKVSCKASGYSFTSQSLGWVRQAPGQGLEWMGIINPSGGITNYAHKFQGRVTMTRDTSTSTVYMELSSLRSEDTALYYCVRDLSHYNEVGHDRAYYYGMDIWGQGTTVTVSS
VL: SYELIQPPSVSVSPGQTASITCSGDKLGKKYTCWYQQKPGQSPVLVIYQDNKRPSGIPERFSGSNSGNTATLTISGTQAMDEADYYCQAWDSSAVVFGGGTKLTVL
For the molecule B1, the NT50 in test [1] came to 1.6 µg/mL; in test [2], 25 µg/mL; in test [3] it was 0.2 µg/mL; in test [4], 6.25 µg/mL; in test [5], 0.2 µg/mL; in [6], 3.13 µg/mL. Besides, the ELISA area under curve (AUC) came out at 15.2 in test [7], 34.7 in test [8] and 35.8 in [9].

B2: 1092E4 hmAb (antibody, V domains shown)
VH: QVQLVQSGAEVKKPGASVKVSCKASGYSFTRYGISWVRQAPGQGLEWMGWISAYTGNTDYAQKFQGRITMTTDTSTSTVYMELRSLRSDDTAVYYCARDHPQGVVILGSYYYGMDVWGQGNTVTVSS
VL: EIVLTQSPGTLSLSPGERATLSCRASQSVTSRYLAWYQQKLGQAPRLLIYGASSRATGIPDRFSGSGSGTDFTLTISSLEPEDFAVYYCQQSGSPRTFGQGTKVEIK
Regarding B2, the ELISA area under curve (AUC) in test [10] is 31.7; with H7 protein, 26; with H1 protein, 18.5; in [11], 28.7; in [12], 33.4; in test [13] it was 32.5. Besides, the NT50 in [14] was 0.1 µg/mL; in test [15] it was 0.1 µg/mL; in test [16], 6.25 µg/mL; in test [17], 6.25 µg/mL; in [18], 0.1 µg/mL; in test [19] it was 6.25 µg/mL. Also, the NT50 in [20] amounted to 3.13 µg/mL; in test [21] it was 0.2 µg/mL.

B3: 1092C4 hmAb (antibody, V domains shown)
VH: B2 VH with Q1E, V79A, H100L
VL: B2 VL with F84L
On to B3, for which the ELISA area under curve (AUC) worked out at 32.3 in test [10]; 27.3 in the test with H7 protein; 9.8 with H1 protein; 34.4 in [11]; 31.4 in [12]; 33.7 in test [13]. Moreover, the NT50 in [14] was 0.1 µg/mL; in [15] it was 0.1 µg/mL; in test [16], 0.78 µg/mL; in test [17], 6.25 µg/mL; in [18], 0.2 µg/mL; in test [19] it was 6.25 µg/mL. The NT50 in [20] worked out at 3.13 µg/mL; in test [21] it was 1.6 µg/mL.

B4: 1122B9 hmAb (antibody, V domains shown)
VH: EVQLVESGGGLVQPGGSLRLSCAASGFTFSGYAMSWVRQAPGKGLECVSGIIGSGGSTYSADSVKGRFTISRDNSKNTLDLEMNSLRAEDTAVYYCAKHTKSHYYSGMGVWGQGTTVTVSS
VL: DIQMTQSPSSLSASVGDRVTITCQASQDISNYLNWYQQRPGKAPKLLIYDAANLETGVPSRFSGSGSATQFTFTISGLQPEDFATYYCQQYDNLPLTFGGGTKVEIK
B4: the ELISA area under curve (AUC) came out at 25.2 in [7], 35.3 in test [8] and 35.2 in test [9].

B5: 1086G8 hmAb (antibody, V domains shown)
VH: EVQLLESGGGLVQPGGSLRLSCTASGFTFASDAMNWVRQAPGKGLEWVSAISGNGGITYFADSVKGRFTISRDNSKDTLYLQMDSLRAEDTAVYYCAKGVAPSHFNLLTGYYAGHYYFDFWGQGTLVTVSS
VL: EIVMTQSPATLSVSPGERATLSCRASQSVRHNLAWYQHKPGQPPRLLIYGASTRAASVPARFSGSGSGTDFTLTISSLQSEDFAVYYCQQYNHWPPYTFGQGTKLEIK
Turning to B5, the ELISA area under curve (AUC) came out at 31.2 in test [10]; 25.2 in the test with H7 protein; 11.4 with H1 protein; 31.4 in test [11]; 28 in test [12]; 33.7 in test [13]. Also, the NT50 turned out to be 0.4 µg/mL in [14]; 0.2 µg/mL in [15]; 12.5 µg/mL in [16]; 12.5 µg/mL in test [17]; 0.4 µg/mL in test [18]; 6.25 µg/mL in test [19]. Besides, the values for the NT50 in test [20] and in [21] were 6.25 µg/mL and 3.13 µg/mL, respectively.
